The source of these data is patent US20180016344A1 (MacroGenics, published 2018).

Assay [1] addresses T1, His-tagged cynomolgus monkey DR5 (cynomolgus monkey).
T1 construct: also called His-tagged DR5 (cynomolgus monkey)
As to the kind of experiment: Biacore (SPR); DR5×CD3 diabody with His-tagged cynomolgus monkey DR5.
Experimental: Bispecific DR5×CD3 diabodies were incubated with His-tagged DR5 and the kinetics of binding was determined via Biacore analysis.

Another assay addresses T2, histidine tagged TRAIL (UniProt P50591 114-281, limits assumed).
T2 construct: also called TRAIL-His; TRAIL ligand; not shown: histidine tag
As to the kind of experiment: ELISA, biotinylated antibody on TRAIL-His coat. Background: In an ELISA, binding on a coated surface is turned into a signal by an enzyme label.

The target of a further assay is T3, human DR5 (human, UniProt O14763 56-440).
T3 construct: also called Death Receptor 5; TRAIL-R2
T3 sequence (O14763 other isoform, or with tags, fused parts or gaps): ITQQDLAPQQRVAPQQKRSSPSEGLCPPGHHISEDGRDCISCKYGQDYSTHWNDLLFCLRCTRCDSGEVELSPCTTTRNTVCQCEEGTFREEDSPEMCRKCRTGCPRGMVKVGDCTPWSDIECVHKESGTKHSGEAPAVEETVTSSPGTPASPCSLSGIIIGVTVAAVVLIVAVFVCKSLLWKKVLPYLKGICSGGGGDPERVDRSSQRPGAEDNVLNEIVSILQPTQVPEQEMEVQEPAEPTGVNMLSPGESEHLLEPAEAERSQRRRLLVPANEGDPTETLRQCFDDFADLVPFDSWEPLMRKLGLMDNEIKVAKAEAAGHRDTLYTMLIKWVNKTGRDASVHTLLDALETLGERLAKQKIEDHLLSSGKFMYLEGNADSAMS
In words: antibody titration read as MFI (log axis) against concentration in nM; the text does not describe the assay format or how DR5 was presented (Example 2).

Experimental for histidine tagged TRAIL: The amount of immobilized biotinylated antibody was assessed.

B1: DR5 mAb 1×CD3 mAb 2 (bispecific antibody)
chain 1: DIVLTQSPASLAVSLGQRATISCRASKSVSSSGYSYMHWYQQKPGQPPKVLIFLSSNLDSGVPARFSGSGSGTDFTLNIHPVEDGDAATYYCQHSRDLPPTFGGGTKLEIKGGGSGGGGEVQLVESGGGLVQPGGSLRLSCAASGFTFSTYAMNWVRQAPGKGLEWVGRIRSKYNNYATYYADSVKGRFTISRDDSKNSLYLQMNSLKTEDTAVYYCVRHGNFGNSYVSWFAYWGQGTLVTVSSASTKGEVAACEKEVAALEKEVAALEKEVAALEK
chain 2: QAVVTQEPSLTVSPGGTVTLTCRSSTGAVTTSNYANWVQQKPGQAPRGLIGGTNKRAPWTPARFSGSLLGGKAALTITGAQAEDEADYYCALWYSNLWVFGGGTKLTVLGGGGSGGGGEVKFLESGGGLVQPGGSLKLSCVASGFDFSRYWMSWVRQAPGKGLEWIGEINPDSNTINYTPSLKDKFIISRDNAKNTLYLQMTKVRSEDTALYYCTRRAYYGNPAWFAYWGQGTLVTVSSASTKGKVAACKEKVAALKEKVAALKEKVAALKE
notes: also called bispecific DR5×CD3 diabody
Turning to B1, in assay [1], the affinity, expressed as Kd, was 32.5 nM.

B2: DR5 mAb 1 (antibody, V domains shown)
VH: EVKFLESGGGLVQPGGSLKLSCVASGFDFSRYWMSWVRQAPGKGLEWIGEINPDSNTINYTPSLKDKFIISRDNAKNTLYLQMTKVRSEDTALYYCTRRAYYGNPAWFAYWGQGTLVTVSS
VL: DIVLTQSPASLAVSLGQRATISCRASKSVSSSGYSYMHWYQQKPGQPPKVLIFLSSNLDSGVPARFSGSGSGTDFTLNIHPVEDGDAATYYCQHSRDLPPTFGGGTKLEIK
notes: also called anti-human DR5 monoclonal antibody DR5 mAb 1
For B2, in the assay with histidine tagged TRAIL, the binding result is “no binding”. The 50% effective concentration (EC50 (read off the curve)) with human DR5 is around 1 nM.

B3: DR5 mAb 2 (antibody, V domains shown)
VH: KVQLQQSGAELVKPGASVKLSCKASGYTFTEYILHWVKQKSGQGLEWIGWFYPGNNNIKYNEKFKDKATLTADKSSSTVYMELSRLTSEDSAVYFCARHEQGPGYFDYWGQGTTLTVSS
VL: DIVMTQSHKFMSTSVGDRVSITCKASQDVNTAVAWYQQKPGQSPKLLIYWASTRHTGVPDRFTGSGSGTDYTLTIKSVQAEDLTLYYCQQHYITPWTFGGGTKLEIK
notes: It is a murine antibody; also called murine anti-human antibody DR5 mAb 2; DR mAb 2
As for B3, the binding result with histidine tagged TRAIL is recorded as “no binding”.

B4: DR5 mAb 4×CD3 mAb 2 (bispecific antibody)
chain 1: EIVLTQSPGTLSLSPGERATLSCRASQGISRSYLAWYQQKPGQAPSLLIYGASSRATGIPDRFSGSGSGTDFTLTISRLEPEDFAVYYCQQFGSSPWTFGQGTKVEIKGGGSGGGGEVQLVESGGGLVQPGGSLRLSCAASGFTFSTYAMNWVRQAPGKGLEWVGRIRSKYNNYATYYADSVKGRFTISRDDSKNSLYLQMNSLKTEDTAVYYCVRHGNFGNSYVSWFAYWGQGTLVTVSSASTKGEVAACEKEVAALEKEVAALEKEVAALEK
chain 2: QAVVTQEPSLTVSPGGTVTLTCRSSTGAVTTSNYANWVQQKPGQAPRGLIGGTNKRAPWTPARFSGSLLGGKAALTITGAQAEDEADYYCALWYSNLWVFGGGTKLTVLGGGGSGGGGQVQLQESGPGLVKPSQTLSLTCTVSGGSISSGDYFWSWIRQLPGKGLEWIGHIHNSGTTYYNPSLKSRVTISVDTSKKQFSLRLSSVTAADTAVYYCARDRGGDYYYGMDVWGQGTTVTVSSASTKGKVAACKEKVAALKEKVAALKEKVAALKE
notes: also called diabody with the VL and VH Domains of conatumumab
The molecule B4 yielded an equilibrium dissociation constant (Kd) in assay [1] of 16.4 nM.

B5: DR5 mAb 2×CD3 mAb 2 (bispecific antibody)
chain 1: DIVMTQSHKFMSTSVGDRVSITCKASQDVNTAVAWYQQKPGQSPKLLIYWASTRHTGVPDRFTGSGSGTDYTLTIKSVQAEDLTLYYCQQHYITPWTFGGGTKLEIKGGGSGGGGEVQLVESGGGLVQPGGSLRLSCAASGFTFSTYAMNWVRQAPGKGLEWVGRIRSKYNNYATYYADSVKGRFTISRDDSKNSLYLQMNSLKTEDTAVYYCVRHGNFGNSYVSWFAYWGQGTLVTVSSASTKGEVAACEKEVAALEKEVAALEKEVAALEK
chain 2: QAVVTQEPSLTVSPGGTVTLTCRSSTGAVTTSNYANWVQQKPGQAPRGLIGGTNKRAPWTPARFSGSLLGGKAALTITGAQAEDEADYYCALWYSNLWVFGGGTKLTVLGGGGSGGGGKVQLQQSGAELVKPGASVKLSCKASGYTFTEYILHWVKQKSGQGLEWIGWFYPGNNNIKYNEKFKDKATLTADKSSSTVYMELSRLTSEDSAVYFCARHEQGPGYFDYWGQGTTLTVSSASTKGKVAACKEKVAALKEKVAALKEKVAALKE
notes: also called DR5 mAb 2×CD3 mAb 2 diabody
In assay [1], B5 returned a Kd of 0.42 nM.

B6: DR5 mAb 3×CD3 mAb 2 (bispecific antibody)
chain 1: SELTQDPAVSVALGQTVRITCSGDSLRSYYASWYQQKPGQAPVLVIYGANNRPSGIPDRFSGSSSGNTASLTITGAQAEDEADYYCNSADSSGNHVVFGGGTKLTVLGGGGSGGGGEVQLVESGGGLVQPGGSLRLSCAASGFTFSTYAMNWVRQAPGKGLEWVGRIRSKYNNYATYYADSVKGRFTISRDDSKNSLYLQMNSLKTEDTAVYYCVRHGNFGNSYVSWFAYWGQGTLVTVSSASTKGEVAACEKEVAALEKEVAALEKEVAALEK
chain 2: QAVVTQEPSLTVSPGGTVTLTCRSSTGAVTTSNYANWVQQKPGQAPRGLIGGTNKRAPWTPARFSGSLLGGKAALTITGAQAEDEADYYCALWYSNLWVFGGGTKLTVLGGGGSGGGGEVQLVQSGGGVERPGGSLRLSCAASGFTFDDYAMSWVRQAPGKGLEWVSGINWQGGSTGYADSVKGRVTISRDNAKNSLYLQMNSLRAEDTAVYYCAKILGAGRGWYFDYWGKGTTVTVSSASTKGKVAACKEKVAALKEKVAALKEKVAALKE
notes: also called diabody with the VL and VH Domains of drozitumab
In the case of B6, the dissociation constant (Kd) in assay [1] worked out at 13.3 nM.

As a reminder, the Kd is the constant that tells how readily two partners part at equilibrium. What is called EC50 (read off the curve) is the concentration giving half of the maximal effect.
